Assay results reported in publication PMC1817651, “Ets-2 and C/EBP-beta are important mediators of ovine trophoblast Kunitz domain protein-1 gene expression in trophoblast”.

B1: Ets-2 consensus (dsDNA)
DNA 1: CTAGGACCGGAAGTGGGAGT
DNA 2: ACTCCCACTTCCGGTCCTAG
B2: TKDP-1/4 (dsDNA)
DNA 1: CTGATCTCACGACTCAGCCAGAATATTAAAAGCTC
DNA 2: GAGCTTTTAATATTCTGGCTGAGTCGTGAGATCAG
B3: TKDP-1/6 (dsDNA)
DNA 1: AGGAGCCCTCCTGCAAGGCC
DNA 2: GGCCTTGCAGGAGGGCTCCT
B4: TKDP-1/2 (dsDNA)
DNA 1: CATGGGTAGGTAGGGAGGTTATGCAATAAACAGGACTGACTCAACTCCTCC
DNA 2: GGAGGAGTTGAGTCAGTCCTGTTTATTGCATAACCTCCCTACCTACCCATG
B5: TKDP-1/3 (dsDNA)
DNA 1: TCCTCCCCTTGCCCACTCCCCTCCTTATCACCTGATCTCACGACTCA
DNA 2: TGAGTCGTGAGATCAGGTGATAAGGAGGGGAGTGGGCAAGGGGAGGA
B6: TKDP-1/5 (dsDNA)
DNA 1: CAGTGTGTCCATCCTCAGCATCCTCAGGAGCCCTC
DNA 2: GAGGGCTCCTGAGGATGCTGAGGATGGACACACTG
B7: TKDP-1/1 (dsDNA)
DNA 1: ACAGATGCAGGAGGCATGGG
DNA 2: CCCATGCCTCCTGCATCTGT

target: T1, ovEts-2-GST fusion (Ovis aries, UniProt A0ACI6RFA5 364-444); experiment: EMSA; anti-Ets-2 supershift; EMSA: 35 fmol probe, 2 ug Ets-2-GST or 10 ug JEG-3 extract, buffer per cited ref 23; pull-down: extract in 25 mM Tris-HCl pH 7.5, 150 mM NaCl, 0.5% Triton X-100, 0.5 mM DTT, 4 C overnight; conditions: protein: recombinant; tags: GST; label: 32P; blunt; only sense strand given
T1 sequence (A0ACI6RFA5 entry or part of it): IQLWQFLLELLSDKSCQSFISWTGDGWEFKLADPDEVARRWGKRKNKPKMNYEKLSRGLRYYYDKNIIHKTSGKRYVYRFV

Binder | binding result
B1 | binds

target: T1, ovEts-2-GST fusion; experiment: competition EMSA; 250-fold excess vs N1; EMSA: 35 fmol probe, 2 ug Ets-2-GST or 10 ug JEG-3 extract, buffer per cited ref 23; pull-down: extract in 25 mM Tris-HCl pH 7.5, 150 mM NaCl, 0.5% Triton X-100, 0.5 mM DTT, 4 C overnight; conditions: protein: recombinant; tags: GST; blunt; only sense strand given

Binder | binding result
B2 | no binding
B3 | no binding
B4 | no binding
B5 | no binding
B6 | no binding
B7 | no binding
